According to patent US20190248888A1, “METHODS OF LOWERING BLOOD GLUCOSE LEVELS” (Regeneron Pharmaceuticals, Inc., priority 2016, published 2019):

System: livers of mice
Experiment: RNAseq gene expression in liver of GCGR antibody treated mice
Type: in vivo, mouse
Settings: 21 days
Procedure: All procedures were conducted in compliance with protocols approved by the Institutional Animal Care and Use Committee of Regeneron Pharmaceuticals. The in vitro and in vivo characteristics of REGN1193 (H4H1327P), a potent monoclonal GCGR blocking antibody has been previously described (See U.S. Pat. No. 8,545,847). This antibody was used as the exemplary glucagon signaling pathway antagonist in all studies in this report (See the HVCR/LCVR amino acid sequence pair of SEQ ID NOs: 86/88 in the present application. See also the corresponding heavy chain complementarity determining regions (HCDRs 1-2-3 of SEQ ID NOs: 72-74-76) and the corresponding light chain complementarity determining regions (LCDRs 1-2-3 of SEQ ID NOs: 80-82-84). The GCGR antibody and isotype control antibody were diluted with sterile PBS.
Total RNA was purified from all samples using MagMAX™-96 for Microarrays Total RNA Isolation Kit (Ambion by Life Technologies) according to manufacturer's specifications. Genomic DNA was removed using MagMAX™Turbo™DNase Buffer and TURBO DNase from the MagMAX kit listed above (Ambion by Life Technologies). mRNA was purified from total RNA using Dynabeads® mRNA Purification Kit (Invitrogen). Strand-specific RNA-seq libraries were prepared using ScriptSeq™ mRNA-Seq Library Preparation Kit (Epicentre). Twelve-cycle PCR was performed to amplify libraries. Sequencing was performed on Illumina HiSeq®2000 (Illumina) by multiplexed single-read run with 33 cycles.
Raw sequence data (BCL files) were converted to FASTQ format via Illumina Casava 1.8.2. Reads were decoded based on their barcodes and read quality was evaluated with FastQC (http://www.bioinformatics.babraham.ac.uk/projects/fastqc/). Reads were mapped to the mouse transcriptome (NCBI GRCh37) using CLC Genomics Workbench Version 7.0 (CLCbio) or TopHat2 (Version 2.0.10) allowing two mismatches. Reads mapped to the exons of a gene were summed at the gene level. To identify differentially expressed genes, the statistical significance (p-value) of the differential expressions was assessed with DESeq package (version 1.6 or 2.0).
A key role of glucagon is to promote the uptake and metabolism of amino acids in the liver to provide gluconeogenic precursors. To further explore this pathway, a recently described fully human GCGR-blocking antibody (Okamato et al, 2015, Endocrinol. 156:2781-2794; See also, U.S. Pat. No. 8,545,847) derived using VelocImmune technology (Macdonald et al., 2014, PNAS 111:5147-5152; Murphy et al., 2014, PNAS 111:5153-5158) was used in the experiments provided herein. […] As shown previously (Mu et al., 2012, PLOS ONE 7:349572; Okamoto et al., 2015, Endocrinol. 156:2781-2794; Solloway et al., 2015, Cell Reports 12:495-510), and confirmed later in this study, these findings provide a mechanism for the elevated circulating amino acid levels that are observed in mice and monkeys with impaired GCGR signaling.

[1] = liver of mice, 15 mg/kg α-GCGR vs control antibody

B1: α-GCGR: potent monoclonal GCGR blocking antibody, HCVR/LCVR SEQ ID NOs: 86/88 (antibody, V domains shown)
VH: EVQLVESGGGLVQPGGSLRLSCAASGFTFSNYLMNWVRQAPGKGLEWLANIQEDGIEKYYVDSVKGRFTISRDNAKNSLYLQMNSLRAEDTAVYYCAREPSHYDILTGYDYYYGMDVWGQGTTVTVS
VL: DIQMTQSPSSLSASVGDRVTITCRASQGIRNDLGWYQQKPGKAPKRLIYAASSLQSGVPSRFSGSGSGTEFILTVSSLQPEDFATYYCLQYNSNPFTFGPGTKVDIK
[1]
  Aass Fold change: −1.85
  Abat Fold change: −1.64
  Acmsd Fold change: −2.70
  Agxt Fold change: −2.17
  Aldh4a1 Fold change: −1.64
  Aldoa Fold change: −1.15
  Arg1 Fold change: −1.56
  Asl Fold change: −1.92
  Ass1 Fold change: −3.23
  Bhmt Fold change: −2.00
  Cbs Fold change: −1.85
  Cps1 Fold change: −1.96
  Cth Fold change: −3.12
  Ddc Fold change: −2.08
  Eno1 Fold change: −1.20
  Fbp1 Fold change: −1.67
  G6pc Fold change: −1.39
  Gcat Fold change: −1.67
  Gldc Fold change: −1.72
  Gnmt Fold change: −2.56
  Got1 Fold change: −8.33
  Gpi1 Fold change: 1.03
  Gpt Fold change: −1.72
  Hgd Fold change: −1.75
  Hpd Fold change: −1.92
  Ivd Fold change: −1.56
  Lap3 Fold change: −1.56
  Mat1a Fold change: −2.04
  Mpst Fold change: −1.61
  Nags Fold change: −1.67
  Oat Fold change: −6.67
  Otc Fold change: −1.12
  Pah Fold change: −1.75
  Pck1 Fold change: −1.82
  Pgam1 Fold change: −1.20
  Pgk1 Fold change: −1.16
  Prodh Fold change: −1.67
  Sardh Fold change: −1.75
  Sds Fold change: −3.23
  Slc1a2 Fold change: −1.25
  Slc3a1 Fold change: −1.72
  Slc3a2 Fold change: −1.08
  Slc6a9 Fold change: 1.45
  Slc7a2 Fold change: −2.27
  Slc15a3 Fold change: −1.12
  Slc15a4 Fold change: −1.15
  Slc16a10 Fold change: −1.28
  Slc17a8 Fold change: 2.32
  Slc25a12 Fold change: 1.27
  Slc25a13 Fold change: −1.27
  Slc25a15 Fold change: −1.92
  Slc25a22 Fold change: −1.56
  Slc36a1 Fold change: −1.41
  Slc36a4 Fold change: −1.18
  Slc38a2 Fold change: −1.08
  Slc38a3 Fold change: −1.75
  Slc38a4 Fold change: −1.56
  Slc38a6 Fold change: −1.09
  Slc38a7 Fold change: 1.05
  Slc38a9 Fold change: 1.17
  Slc38a10 Fold change: −1.04
  Slc43a1 Fold change: −2.78
  Tat Fold change: −4.35
  Tpi1 Fold change: −1.14
  pcx Fold change: −1.15
Liver of mice, 15 mg/kg α-GCGR
  Aass expression RPKM: 60.38 RPKM
  Abat expression RPKM: 43.18 RPKM
  Acmsd expression RPKM: 3.90 RPKM
  Agxt expression RPKM: 111.91 RPKM
  Aldh4a1 expression RPKM: 64.72 RPKM
  Aldoa expression RPKM: 16.24 RPKM
  Arg1 expression RPKM: 969.96 RPKM
  Asl expression RPKM: 151.51 RPKM
  Ass1 expression RPKM: 190.00 RPKM
  Bhmt expression RPKM: 98.73 RPKM
  Cbs expression RPKM: 126.52 RPKM
  Cps1 expression RPKM: 419.74 RPKM
  Cth expression RPKM: 139.77 RPKM
  Ddc expression RPKM: 15.03 RPKM
  Eno1 expression RPKM: 14.96 RPKM
  Fbp1 expression RPKM: 365.35 RPKM
  G6pc expression RPKM: 40.65 RPKM
  Gcat expression RPKM: 18.88 RPKM
  Gldc expression RPKM: 33.42 RPKM
  Gnmt expression RPKM: 449.55 RPKM
  Got1 expression RPKM: 9.98 RPKM
  Gpi1 expression RPKM: 16.58 RPKM
  Gpt expression RPKM: 103.74 RPKM
  Hgd expression RPKM: 109.59 RPKM
  Hpd expression RPKM: 874.17 RPKM
  Ivd expression RPKM: 51.86 RPKM
  Lap3 expression RPKM: 108.58 RPKM
  Mat1a expression RPKM: 525.98 RPKM
  Mpst expression RPKM: 17.32 RPKM
  Nags expression RPKM: 13.94 RPKM
  Oat expression RPKM: 66.76 RPKM
  Otc expression RPKM: 292.99 RPKM
  Pah expression RPKM: 232.16 RPKM
  Pck1 expression RPKM: 490.87 RPKM
  Pgam1 expression RPKM: 2.12 RPKM
  Pgk1 expression RPKM: 1.91 RPKM
  Prodh expression RPKM: 89.26 RPKM
  Sardh expression RPKM: 122.51 RPKM
  Sds expression RPKM: 39.47 RPKM
  Slc1a2 expression RPKM: 14.89 RPKM
  Slc3a1 expression RPKM: 9.78 RPKM
  Slc3a2 expression RPKM: 14.56 RPKM
  Slc6a9 expression RPKM: 10.29 RPKM
  Slc7a2 expression RPKM: 67.24 RPKM
  Slc15a3 expression RPKM: 1.15 RPKM
  Slc15a4 expression RPKM: 5.47 RPKM
  Slc16a10 expression RPKM: 14.93 RPKM
  Slc17a8 expression RPKM: 4.18 RPKM
  Slc25a12 expression RPKM: 4.68 RPKM
  Slc25a13 expression RPKM: 76.40 RPKM
  Slc25a15 expression RPKM: 50.85 RPKM
  Slc25a22 expression RPKM: 14.40 RPKM
  Slc36a1 expression RPKM: 3.90 RPKM
  Slc36a4 expression RPKM: 1.34 RPKM
  Slc38a2 expression RPKM: 17.59 RPKM
  Slc38a3 expression RPKM: 285.49 RPKM
  Slc38a4 expression RPKM: 261.42 RPKM
  Slc38a6 expression RPKM: 1.72 RPKM
  Slc38a7 expression RPKM: 4.41 RPKM
  Slc38a9 expression RPKM: 1.48 RPKM
  Slc38a10 expression RPKM: 19.58 RPKM
  Slc43a1 expression RPKM: 0.83 RPKM
  Tat expression RPKM: 197.67 RPKM
  Tpi1 expression RPKM: 46.09 RPKM
  pcx expression RPKM: 68.44 RPKM
Livers of mice, 15 mg/kg
  expression of genes involved in amino acid metabolism, urea cycle and gluconeogenesis: reduced expression
  expression of mitochondrial amino acid transporters Slc25a15 and Slc25a22: significantly reduced
  reduction of expression of plasma membrane amino acid transporters Slc38a3, Slc38a4, Slc7a2 and Slc3a1: 30-50%
